Sequences and labels used below:
B1: H1L1 (antibody, V domains shown)
VH: QVQLQESGPGLVKPSQTLSLTCTVTGYSITSDYAWNWIRQFPGKGLEWMGYISYSGSFSYHPSLKSRVTISRDTSKNQFSLKLSSVTAADTAVYYCARSFSYGYGFAYWGQGTLVTVSS
VL: DIQMTQSPSSLSASVGDRVTITCKASQDVSSAVAWYQQKPGKAPKLLIYSASYRYTGVPSRFSGSGSGTDFTFTISSLQPEDFATYYCQQHYSTPWTFGGGTKVEIK
notes: also called humanized antibody variant H1L1; parental antibody H1L1
B2: H2L1 (antibody, V domains shown)
VH: QVQLQESGPGLVKPSQTLSLTCTVTGYSITSDYAWNWIRQFPGNGLEWIGYISYSGSFSYHPSLKSRVTISRDTSKNQFSLKLSSVTAADTAVYYCARSFSYGYGFAYWGQGTLVTVSS
VL: DIQMTQSPSSLSASVGDRVTITCKASQDVSSAVAWYQQKPGKAPKLLIYSASYRYTGVPSRFSGSGSGTDFTFTISSLQPEDFATYYCQQHYSTPWTFGGGTKVEIK
notes: also called humanized antibody variant H2L1
B3: H1L2 (antibody, V domains shown)
VH: QVQLQESGPGLVKPSQTLSLTCTVTGYSITSDYAWNWIRQFPGKGLEWMGYISYSGSFSYHPSLKSRVTISRDTSKNQFSLKLSSVTAADTAVYYCARSFSYGYGFAYWGQGTLVTVSS
VL: DIVMTQSPSSLSASVGDRVTITCKASQDVSSAVAWYQQKPGQSPKLLIYSASYRYTGVPDRFSGSGSGTDFTFTISSLQPEDFATYYCQQHYSTPWTFGGGTKLEIK
notes: also called humanized antibody variant H1L2
B4: AFF10 (antibody, human IgG1, V domains shown)
VH: QVQLQESGPGLVKPSQTLSLTCTVTGYSITSDYTWNWIRQFPGKGLEWMGYISYSGSYSYHPSLKSRVTISRDTSKNQFSLKLSSVTAADTAVYYCARSFSYGYGFAYWGQGTLVTVSS
VL: DIQMTQSPSSLSASVGDRVTITCKASQDVSSAVAWYQQKPGKAPKLLIYSASYRYTGVPSRFSGSGSGTDFTFTISSLQPEDFATYYCQQHYSTPWTFGGGTKVEIK
B5: AFF2 (antibody, human IgG1, V domains shown)
VH: QVQLQESGPGLVKPSQTLSLTCTVTGYSITSDYTWNWIRQFPGKGLEWMGYISYSGSFSYNPSLKSRVTISRDTSKNQFSLKLSSVTAADTAVYYCARSFSYSYGFAYWGQGTLVTVSS
VL: DIQMTQSPSSLSASVGDRVTITCKASQDVSSAVAWYQQKPGKAPKLLIYSASYRYTGVPSRFSGSGSGTDFTFTISSLQPEDFATYYCQQHYSTPWTFGGGTKVEIK
B6: AFF3 (antibody, human IgG1, V domains shown)
VH: QVQLQESGPGLVKPSQTLSLTCTVTGYSITSDYAWNWIRQFPGKGLEWMGYISYSGSYSYNPSLKSRVTISRDTSKNQFSLKLSSVTAADTAVYYCARSFSYSYGFAYWGQGTLVTVSS
VL: DIQMTQSPSSLSASVGDRVTITCKASQDVSSAVAWYQQKPGKAPKLLIYSASYRYTGVPSRFSGSGSGTDFTFTISSLQPEDFATYYCQQHYSTPWTFGGGTKVEIK
B7: AFF1 (antibody, human IgG1, V domains shown)
VH: QVQLQESGPGLVKPSQTLSLTCTVTGYSITSDYAWNWIRQFPGKGLEWMGYISYSGSFSYNPSLKSRVTISRDTSKNQFSLKLSSVTAADTAVYYCARSFSYSYGFAYWGQGTLVTVSS
VL: DIQMTQSPSSLSASVGDRVTITCKASQDVSSAVAWYQQKPGKAPKLLIYSASYRYTGVPSRFSGSGSGTDFTFTISSLQPEDFATYYCQQHYSTPWTFGGGTKVEIK
B8: AFF8 (antibody, human IgG1, V domains shown)
VH: QVQLQESGPGLVKPSQTLSLTCTVTGYSITSDYTWNWIRQFPGKGLEWMGYISYSGSFSYNPSLKSRVTISRDTSKNQFSLKLSSVTAADTAVYYCARSFSYSYGFAYWGQGTLVTVSS
VL: DIQMTQSPSSLSASVGDRVTITCKASQDVSSAVAWYQQKPGKAPKLLIYSASYRYIGVPSRFSGSGSGTDFTFTISSLQPEDFATYYCQQHYSTPWTFGGGTKVEIK
B9: AFF7 (antibody, human IgG1, V domains shown)
VH: QVQLQESGPGLVKPSQTLSLTCTVTGYSITSDYAWNWIRQFPGKGLEWMGYISYSGSFSYNPSLKSRVTISRDTSKNQFSLKLSSVTAADTAVYYCARSFSYSYGFAYWGQGTLVTVSS
VL: DIQMTQSPSSLSASVGDRVTITCKASQDVSSAVAWYQQKPGKAPKLLIYSASYRYIGVPSRFSGSGSGTDFTFTISSLQPEDFATYYCQQHYSTPWTFGGGTKVEIK
B10: AFF6 (antibody, human IgG1, V domains shown)
VH: QVQLQESGPGLVKPSQTLSLTCTVTGYSITSDYTWNWIRQFPGKGLEWMGYISYSGSFSYNPSLKSRVTISRDTSKNQFSLKLSSVTAADTAVYYCARSLSYGYGFAYWGQGTLVTVSS
VL: DIQMTQSPSSLSASVGDRVTITCKASQDVSSAVAWYQQKPGKAPKLLIYSASYRYTGVPSRFSGSGSGTDFTFTISSLQPEDFATYYCQQHYSTPWTFGGGTKVEIK
B11: AFF9 (antibody, human IgG1, V domains shown)
VH: QVQLQESGPGLVKPSQTLSLTCTVTGYSITSDYAWNWIRQFPGKGLEWMGYISYSGSYSYNPSLKSRVTISRDTSKNQFSLKLSSVTAADTAVYYCARSFSYAYGFAYWGQGTLVTVSS
VL: DIQMTQSPSSLSASVGDRVTITCKASQDVSSAVAWYQQKPGKAPKLLIYSASYRYTGVPSRFSGSGSGTDFTFTISSLQPEDFATYYCQQHYSTPWTFGGGTKVEIK
B12: AFF5 (antibody, human IgG1, V domains shown)
VH: QVQLQESGPGLVKPSQTLSLTCTVTGYSITSDYTWNWIRQFPGKGLEWMGYISYSGSYSYHPSLKSRVTISRDTSKNQFSLKLSSVTAADTAVYYCARSLSYGYGFAYWGQGTLVTVSS
VL: DIQMTQSPSSLSASVGDRVTITCKASQDVSSAVAWYQQKPGKAPKLLIYSASYRYTGVPSRFSGSGSGTDFTFTISSLQPEDFATYYCQQHYSTPWTFGGGTKVEIK
B13: Humanized optimized antibody “AFF4” (human IgG format; with G236A/S239D/A330L/I332E mutations) (antibody)
heavy: QVQLQESGPGLVKPSQTLSLTCTVTGYSITSDYTWNWIRQFPGKGLEWMGYISYSGSYSYNPSLKSRVTISRDTSKNQFSLKLSSVTAADTAVYYCARSFSYSYGFAYWGQGTLVTVSSASTKGPSVFPLAPSSKSTSGGTAALGCLVKDYFPEPVTVSWNSGALTSGVHTFPAVLQSSGLYSLSSVVTVPSSSLGTQTYICNVNHKPSNTKVDKRVEPKSCDKTHTCPPCPAPELLAGPDVFLFPPKPKDTLMISRTPEVTCVVVDVSHEDPEVKFNWYVDGVEVHNAKTKPREEQYNSTYRVVSVLTVLHQDWLNGKEYKCKVSNKALPLPEEKTISKAKGQPREPQVYTLPPSREEMTKNQVSLTCLVKGFYPSDIAVEWESNGQPENNYKTTPPVLDSDGSFFLYSKLTVDKSRWQQGNVFSCSVMHEALHNHYTQKSLSLSPG
light: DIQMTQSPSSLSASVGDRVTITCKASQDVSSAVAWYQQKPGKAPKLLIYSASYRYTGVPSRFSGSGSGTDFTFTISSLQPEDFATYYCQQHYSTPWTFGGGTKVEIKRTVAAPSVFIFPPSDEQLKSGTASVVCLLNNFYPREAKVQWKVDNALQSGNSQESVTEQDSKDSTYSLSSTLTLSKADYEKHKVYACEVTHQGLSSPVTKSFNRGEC
notes: also called AFF4 antibody

For orientation: Kd means a measure of binding affinity in units of concentration. A low value points to higher affinity. The term koff denotes the first-order rate constant of dissociation. As a reminder, the kon is the rate constant with which the complex forms. Lower therefore signals slower complex formation.

The first test deals with T1, soluble His-tagged human L1CAM (extracellular portion, amino acids 20 to 1120) (human, UniProt P32004 20-1120).
T1 construct: range 20-1120; Expressed in HEK cells with an N-terminal leader peptide for secretion (not part of the assayed protein)
T1 sequence (P32004 other isoform, or with tags, fused parts or gaps limits assumed): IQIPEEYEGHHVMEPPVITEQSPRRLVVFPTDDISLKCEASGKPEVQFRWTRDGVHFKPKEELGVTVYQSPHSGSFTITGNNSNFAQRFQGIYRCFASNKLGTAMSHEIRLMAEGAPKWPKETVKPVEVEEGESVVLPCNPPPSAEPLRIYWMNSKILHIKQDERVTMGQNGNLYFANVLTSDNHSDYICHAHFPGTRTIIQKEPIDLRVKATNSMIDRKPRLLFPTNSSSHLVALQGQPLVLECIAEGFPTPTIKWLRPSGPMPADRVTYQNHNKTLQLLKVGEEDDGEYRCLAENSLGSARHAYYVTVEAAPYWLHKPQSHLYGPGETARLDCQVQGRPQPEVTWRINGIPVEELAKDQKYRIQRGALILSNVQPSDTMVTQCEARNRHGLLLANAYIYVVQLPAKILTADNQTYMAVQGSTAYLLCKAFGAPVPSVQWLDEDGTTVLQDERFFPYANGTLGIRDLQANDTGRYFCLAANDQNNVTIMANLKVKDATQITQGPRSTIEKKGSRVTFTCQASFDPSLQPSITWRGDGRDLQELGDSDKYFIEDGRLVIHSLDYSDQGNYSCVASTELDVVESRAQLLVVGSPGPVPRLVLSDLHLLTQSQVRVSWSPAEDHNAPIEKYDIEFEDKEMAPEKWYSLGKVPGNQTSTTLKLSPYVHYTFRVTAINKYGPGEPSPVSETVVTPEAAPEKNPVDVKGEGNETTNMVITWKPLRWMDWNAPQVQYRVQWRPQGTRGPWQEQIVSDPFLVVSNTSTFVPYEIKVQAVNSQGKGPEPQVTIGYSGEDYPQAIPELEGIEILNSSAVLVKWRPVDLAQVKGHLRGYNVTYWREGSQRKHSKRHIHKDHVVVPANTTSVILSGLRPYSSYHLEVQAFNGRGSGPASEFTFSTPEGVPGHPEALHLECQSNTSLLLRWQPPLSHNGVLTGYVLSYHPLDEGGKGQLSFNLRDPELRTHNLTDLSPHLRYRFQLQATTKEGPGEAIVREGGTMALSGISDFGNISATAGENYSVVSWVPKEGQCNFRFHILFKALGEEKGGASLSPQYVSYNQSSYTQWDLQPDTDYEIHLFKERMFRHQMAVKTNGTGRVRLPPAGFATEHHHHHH
Briefly: SPR (Biacore T200), antibody captured on C1 Protein A chip, His-tagged human L1CAM as analyte 10, 20, 40 nM, 1:1 Langmuir fit. As for the experimental part: (§1) Monovalent kinetic binding constants of the eight humanized antibody variants towards human L1CAM were determined by surface plasmon resonance using a Biacore T200 instrument. Antibodies were captured via their Fc regions on a C1 Protein A Chip (GE Healthcare), and soluble His-tagged human L1CAM was injected as analyte in 3 different concentrations (10, 20 and 40 nM), using 10 mM HEPES/150 mM NaCl/3 mM EDTA/0.05% Tween 20 as running buffer. Detected resonance units (sensorgrams) were fitted to a 1:1 Langmuir binding model and association (kₐ) and dissociation (kd) rate constants as well as the affinity constants (KD) were calculated.
Molecule B1 had a Kd of 4.5 nM, a koff of 0.00079 s⁻¹ and a kon of 177000 M⁻¹ s⁻¹.
In turn, B2 gave a Kd of 4.4 nM, a koff of 0.000751 s⁻¹ and a kon of 170000 M⁻¹ s⁻¹.
The corresponding values for B3 are 6.1 nM, 0.000872 s⁻¹ and 144000 M⁻¹ s⁻¹.

The target of the next test is T1, soluble His-tagged human L1CAM …. Briefly: SPR (Biacore T200), antibody captured on Protein A chip, His-tagged human L1CAM as analyte 5, 10, 20, 40 nM, 1:1 Langmuir fit. As for the experimental part: as §1
The monovalent kinetic binding constants towards human L1CAM were determined by surface plasmon resonance using a Biacore T200 instrument as described in Example 4, except that soluble His-tagged human L1CAM was injected in 4 different concentrations (5, 10, 20 and 40 nM).
A general note: SPR reads the build-up and loss of mass on a sensor chip optically.
B4 gave a Kd of 0.99 nM, a koff of 0.000251 s⁻¹ and a kon of 255000 M⁻¹ s⁻¹.
The corresponding values for B5 are 0.31 nM, 0.000126 s⁻¹ and 411000 M⁻¹ s⁻¹.
As for B6, the dissociation constant (Kd) was 0.22 nM, the koff was 6.52e-05 s⁻¹ and the kon stood at 299000 M⁻¹ s⁻¹.
In the case of B7, the Kd is 0.36 nM, the koff stood at 0.000104 s⁻¹ and the on-rate constant (kon) was determined as 290000 M⁻¹ s⁻¹.
The corresponding values for B8 are 0.3 nM, 0.000116 s⁻¹ and 383000 M⁻¹ s⁻¹.
For B9, the Kd was 0.32 nM, the koff amounted to 8.83e-05 s⁻¹ and the kon turned out to be 273000 M⁻¹ s⁻¹.
Consider B10, for which the affinity, expressed as Kd, was 0.98 nM; the koff came to 0.000337 s⁻¹; the kon stood at 345000 M⁻¹ s⁻¹.
The corresponding values for B11 are 0.36 nM, 9.28e-05 s⁻¹ and 258000 M⁻¹ s⁻¹.
In turn, B12 came in with a Kd of 0.72 nM, a koff of 0.000252 s⁻¹ and a kon of 349000 M⁻¹ s⁻¹.
The corresponding values for B13 are 0.2 nM, 8.45e-05 s⁻¹ and 416000 M⁻¹ s⁻¹.

The values above are taken from patent US20260234245A1 (ELTHERA, published 2026).
